Laboratory results as given in US5786462, “High affinity ssDNA ligands of HIV-1 reverse transcriptase” (NeXstar Pharmaceuticals, Inc.).

Key:
[1] = target: T1, HIV-1 reverse transcriptase (Human immunodeficiency virus 1, UniProt P03366;P03366 P03366:600-1159,P03366:600-1039); assay: filter; first 49 nt of RT1; settings: tags: expressed in E. coli, purified per Davies et al. 1991
[2] = target: T1, HIV-1 reverse transcriptase; assay: inhibition; Ki', RNA-dependent DNA polymerase activity; settings: tags: expressed in E. coli, purified per Davies et al. 1991
Text: (§1) Assay For Inhibition of RNA-Dependent DNA Polymerase Activity. A substrate for the RNA-dependent DNA polymerase activity of HIV-1 RT was assembled by annealing an 18 nucleotide, 5' end-labeled DNA primer to a 30 nucleotide RNA template with a complementary 3' end (see FIG. 10), and purifying the duplex on a 12% non-denaturing acrylamide gel. The primer sequence matched the 3' terminal 18 nucleotides of tRNA^{Lys,3}, responsible for priming minus-strand DNA synthesis of the HIV-1 genome, and the template sequence paralleled the HIV-1 genomic primer binding site and downstream 12 nucleotides. A dilution series of inhibitory ssDNA ligand (to give a final concentration of 0, 1, 3, 9, 27, or 81 nM) was denatured in HRT Buffer at 70° C. for 5 minutes and allowed to renature slowly at 20° C. The primer:template substrate was added to a final concentration of 40 nM, along with dNTP's at 400 μM. The 10 μl reaction was initiated with the addition of either HIV-1, AMV, or MMLV-RT (to give a final concentration of 10 nM), allowed to proceed for 5 minutes at 37° C., and terminated with one volume of formamide. Extension products were separated on an 8% denaturing acrylamide gel and quantitated with an Ambis radioanalytic imager.
The ability of each of the 8 isolates to inhibit the RNA-dependent DNA polymerase activity of HIV-1 RT was assayed by measuring the decrease in extension product formation from a primer::template substrate as a function of inhibitor concentration (FIGS. 10A–10E). The substrate for the inhibition assay was a DNA:RNA heteroduplex consisting of an 18 nucleotide end-labeled DNA primer (SEQ ID NO: 74) identical in sequence to the 3' end of tRNA^{Lys,3} annealed to a 30 nucleotide RNA template (SEQ ID NO: 75) whose sequence matches the genomic primer binding site and the first twelve transcribed nucleotides. Extension reactions were performed as described in Example 1 in the presence of 0, 81, 27, 9, 3, and 1 nM inhibitor as indicated in FIG. 10.

[3] = target: T1, HIV-1 reverse transcriptase; assay: filter; HRT buffer, 6 mM MgCl2, 37 C; settings: tags: expressed in E. coli, purified per Davies et al. 1991, label: 5'-32P
Experimental: Nitrocellulose Filter Binding Assays. Oligonucleotides bound to proteins can be effectively separated from the unbound species by filtration through nitrocellulose membrane filters (Yarus, M. and Berg, P. (1970) Anal. Biochem. 35:450–465; Lowary, P. T. and Uhlenbeck, O. C. (1987) Nucleic Acids Res. 15:10483–10493; Tuerk, C. and Gold, L. (1990) Science 249:505–510). The affinity of the random ssDNA library for HIV-1 RT was determined using a protein excess nitrocellulose filter binding assay as described in Carey, J. et al. (1983) Biochemistry 22:2601–2609. Selections were performed with a saturating ssDNA concentration to promote competition among DNA ligands for a limited number of available target binding sites.
(§2) Binding Curves Confirm High Affinity of Individual Ligands. Affinity values of each of the eight chosen isolates for HIV-1 RT were measured using the filter binding assay described in Example 1 (FIGS. 7A–C). […] Differences in maximum percent bound likely reflect competing ligand structures with lower affinity. […] Indicated dissociation constants were determined as in Example 1.

[4] = target: T1, HIV-1 reverse transcriptase; assay: filter; competition against RT1 gave Kc 3 nM (Example 5, FIG. 14); settings: tags: expressed in E. coli, purified per Davies et al. 1991; pseudoknot
Experimental: 15:10483–10493; Tuerk, C. and Gold, L. (1990) Science 249:505–510). The affinity of the random ssDNA library for HIV-1 RT was determined using a protein excess nitrocellulose filter binding assay as described in Carey, J. et al. (1983) Biochemistry 22:2601–2609. Selections were performed with a saturating ssDNA concentration to promote competition among DNA ligands for a limited number of available target binding sites.
as §2

[5] = target: T1, HIV-1 reverse transcriptase; assay: inhibition; Ki', RNA-dependent DNA polymerase activity, 10 nM RT, 40 nM substrate, 37 C; settings: tags: expressed in E. coli, purified per Davies et al. 1991; label: 5'-32P; internal loop (AA opposite CG) helix
Text: as §1, with “imager. […]” for “imager.”

In the case of ATCCGCCTGAATAGCGATACTCAGAAGGATAAACTGTCCAGAACTTGGA (ssDNA) [RT1t49], the Kd [1] is reported as 4 nM.

B1: RT8 (ssDNA)
DNA: ATCCGCCTGATTAGCGATACTAGCCAGTCAAGTTAATGGGTGCCATGCAGAAGCAACTTGAGCAAAATCACCTGCAGGGG
For B1, the Ki ([2]; label: 5'-32P, internal loop variant (CAA opposite TAG)) was 13 nM.

B2: RT26 (ssDNA)
DNA: ATCCGCCTGATTAGCGATACTTACGTGAGCGTGCTGTCCCCTAAAGGTGATACGTCACTTGAGCAAAATCACCTGCAGGGG
For B2, the Kd ([3]; intramolecular primer:template junction with internal loop (AA opposite CG)) was roughly 1 nM and the Ki ([2]; label: 5'-32P, intramolecular primer:template junction with internal loop (AA opposite CG)) was 2.7 nM.

For GGUCCGAAGUGCAACGGGAAAAUGCACU (ssRNA) [RNA pseudoknot (RNA pk)], the Kd [4] was 5 nM and the Ki ([2]; pseudoknot) was 4.7 nM.

B3: RT36 (ssDNA)
DNA: ATCCGCCTGATTAGCGATACTAAGCTCTTAGTTGATGCGCGGTCAAAATTTAAGCTACTTGAGCAAAATCACCTGCAGGGG
B3 gave a Ki ([2]; label: 5'-32P, internal loop variant (AA opposite A)) of 6.5 nM.

B4: RT10 (ssDNA)
DNA: ATCCGCCTGATTAGCGATACTTATTTGCCCTTGCAGGCCGCAGGAGTGCTAGCAGTACTTGAGCAAAATCACCTGCAGGGG
Binder B4 has a Ki ([2]; label: 5'-32P, intramolecular primer:template junction) of 62 nM.

B5: RT6 (ssDNA)
DNA: ATCCGCCTGATTAGCGATACTCAGGCGTTAGGGAAGGGCGTCGAAAGCAGGGTGGGACTTGAGCAAAATCACCTGCAGGGG
Binder B5 has a Kd [3] of 5 nM and a Ki ([2]; label: 5'-32P) of 30 nM.

B6: RT1 (ssDNA)
DNA: ATCCGCCTGATTAGCGATACTCAGAAGGATAAACTGTCCAGAACTTGGAATATATCACTTGAGCAAAATCACCTGCAGGGG
For B6, the Kd ([3]; internal loop (AA opposite CG) helix) was roughly 1 nM and the Ki [5] was 0.3 nM.

B7: RT4 (ssDNA)
DNA: ATCCGCCTGATTAGCGATACTTTAGCAAAGTTGAAGCCGGACTAACAAGCTCTACGACTTGAGCAAAATCACCTGCAGGGG
B7 was tested, and the Ki ([2]; label: 5'-32P, internal loop variant (AA opposite AG)) was 4.1 nM.
